Patent US20180237519A1 (OHIO STATE INNOVATION FOUNDATION, published 2018)

Target: T1, CS-1 (human, UniProt Q9NQ25 23-335)
T1 sequence (looked up): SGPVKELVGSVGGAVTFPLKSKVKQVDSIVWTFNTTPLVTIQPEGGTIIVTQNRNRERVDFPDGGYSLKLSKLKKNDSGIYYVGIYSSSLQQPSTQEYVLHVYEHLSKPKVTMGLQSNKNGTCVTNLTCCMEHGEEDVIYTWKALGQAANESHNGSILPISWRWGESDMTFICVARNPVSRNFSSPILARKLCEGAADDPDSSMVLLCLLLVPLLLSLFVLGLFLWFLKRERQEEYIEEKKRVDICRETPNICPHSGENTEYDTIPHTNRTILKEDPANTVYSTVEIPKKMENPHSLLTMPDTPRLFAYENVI
Assay: cell-based or functional assay

B1: anti-CS-1 tri-specific cytotoxic lymphocytes engager (TriCLE) (bispecific antibody)
chain: QVQLVESGGGLVKPGGSLRLSCAASGFTFSSYGMHWVRQAPGKGLEWVAFIRYDGSNKYYADSVKGRFTISRDNSKNTLYLQMNSLRAEDTAVYYCAKDRGLGDGTYFDYWGQGTTVTVSSGGGGSGGGGSGGGGSQSALTQPASVSGSPGQSITISCSGSSSNIGNNAVNWYQQLPGKAPKLLIYYDDLLPSGVSDRFSGSKSGTSAFLAISGLQSEDEADYYCAAWDDSLNGPVFGGGTKLTVLPSGQAGAAASESLFVSNHAYKLELKTGAGFTLPTSYHQQCYYVALDEAQVNSITFTFDTGSGSGTFRDPVGTYRYSASYILLKPSQGPKQQYWAVGTIVDQSAKCTISVRDGVSTSMSKQSQTMVIDGGGGSGGGGSGGGGSSVTVSTGQGWYDMARTAIMTSRACYYVASDESTPSSLQMYATSSSKDVTLTAKDKFKQNLRTESDSPHIMGIWELGQGPRQKVWNMWYTTFSYGSAKCSLKVSAGPRVLEAGPQQLQVQSHHHHHH
EC50 of cytotoxicity of TriCLE-activated PBMCs against H929: 1.2 nM | EC50 of cytotoxicity of TriCLE-activated PBMCs against MM1.s: 3 pM | EC50 of cytotoxicity of TriCLE-activated PBMCs against RPMI-8226: 1.8 nM
